The assay addresses αβ-tubulin (tubulin dimer; as free tubulin, Tau-induced microtubules or Taxol-stabilized microtubules) (lamb (purified from lamb brains)).

Chain of Tau F4 fragment labeled with MTSL (F4^MTSL) (P10636 525-641): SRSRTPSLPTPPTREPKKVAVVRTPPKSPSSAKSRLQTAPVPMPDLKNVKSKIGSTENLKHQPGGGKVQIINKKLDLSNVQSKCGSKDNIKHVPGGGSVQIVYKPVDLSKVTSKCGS

“Tau F4 fragment labeled with MTSL (F4^MTSL) (from UniProt P10636-8 208-324) (domain or fragment)”: the k of MTSL label release (thiol-disulfide exchange) by EPR, h(−1)/h(0) against time; Induced-MTs, 10 µM labeled protein, 1:2 with tubulin, 37 °C is 0.217 min⁻¹ and the k of MTSL label release (thiol-disulfide exchange) by EPR, h(−1)/h(0) against time; Taxol-MTs, 10 µM labeled protein, 1:2 with tubulin, 37 °C was 0.025 min⁻¹.

Consider “Tau F4 fragment C291S mutant labeled with MTSL on C322 (C322^MTSL) (from UniProt P10636-8 208-324) (domain or fragment)”, for which the k of MTSL label release (thiol-disulfide exchange) by EPR, h(−1)/h(0) against time; Tau-MTs (induced), 10 µM labeled protein, 1:2 with tubulin, 37 °C amounted to 0.077 min⁻¹.

On to “Tau F4 fragment C322S mutant labeled with MTSL on C291 (C291^MTSL) (from UniProt P10636-8 208-324) (domain or fragment)”, for which the k of MTSL label release (thiol-disulfide exchange) by EPR, h(−1)/h(0) against time; Tau-MTs (induced), 10 µM labeled protein, 1:2 with tubulin, 37 °C worked out at 0.127 min⁻¹.

(Values after paper PMC6138654.)
